We go through two molecules from patent publication US20200325212A1 (CITY OF HOPE, published 2020).

A value given as a limit tells only on which side of the number the result lay.

As usually defined, the Kd is the equilibrium constant for the complex coming apart. The koff is the first-order rate constant of dissociation. The kon is the rate constant with which the complex forms. Read a low kon as slow association.

Test [1] has as its target murine CTLA4 on murine T-cells (C57BL/6 splenocytes) (mouse, UniProt P09793 36-223). Briefly: cell-based or functional assay.
Test [2] deals with T1, CTLA4-Fc MMP9 (MMP9-cleavable CTLA4-Fc mask; CTLA4-Fc_WT) (human).
T1 construct: It was expressed in insect cells; also called CTLA-4-MMP9-Fc; CTLA4-MMP9-Fc
Briefly: SPR, CTLA-4-MMP9-Fc coupled to the sensor chip and titrated with m-Lcn2-Fc; no dissociation observed. The text has this:
To verify that the m-Lcn2-Fc and CTLA-4-Fc form a 1:1 complex, we used analytical size exclusion chromatography (SEC) (FIG. 3 panel A). A definitive shift to earlier elution volumes was observed, consistent with a molecular mass of 200 kD, as expected. To verify an increase in the apparent affinity due to the energy additivity of bivalent-bivalent interaction, the mask, CTLA-4-MMP9-Fc, was coupled to a CMS sensor chip and titrated with the bivalent m-Lcn2-Fc. A substantial increase in affinity was observed. In fact, no dissociation was observed and thus no calculation could be completed for an apparent dissociation constant (FIG. 3 panel B). […] In an attempt to establish the off-rate, a competition assay was carried out. Specifically, the 1:1 m-Lcn2-Fc|CTLA-4-MMP9-Fc complex was isolated and incubated with 10 fold excess of Alexafluor-labeled CTLA-4-MMP9-Fc. The exchange by size exclusion chromatography was followed by monitoring at […]. After two weeks, less than 5% exchange was observed.
Surface Plasmon Resonance (SPR). SPR experiments were performed on a GE Biacore T100 instrument at 25° C. Ligands were amine coupled to CMS chips at 300 Rmax. Blank lanes were used as baseline control. Analyte titrations were prepared as serial dilutions in HBS-EP⁺ running buffer (10 mM Hepes pH 7.4, 150 mM NaCl, 3 mM EDTA, 0.05% v/v P20). […]

Test [3] has as its target T2, CTLA4-Fc variant T51H (human).
T2 construct: Whole fusion (CTLA4 extracellular domain, MMP9 linker, IgG1 Fc) with T51H; also called T51H CTLA-4
Briefly: SPR (Biacore T100), mLCN2 on CTLA4-Fc variant. On the procedure: (§1) Surface Plasmon Resonance (SPR). SPR experiments were performed on a GE Biacore T100 instrument at 25° C. Ligands were amine coupled to CMS chips at 300 Rmax. Blank lanes were used as baseline control. Analyte titrations were prepared as serial dilutions in HBS-EP⁺ running buffer (10 mM Hepes pH 7.4, 150 mM NaCl, 3 mM EDTA, 0.05% v/v P20). Increasing concentrations of analytes were flowed over blank and ligand lanes at 50 μL/min. Regeneration buffer (1 M NaCl, 10 mM glycine pH 2.6) was flowed at 90 μL/min for 10 s. Data analyses were performed using Biacore T100 Evaluation Software, version 1.1.1 (GE Healthcare). Response reported as the difference between blank and peptide lanes.
(§2) TABLE 3 Kinetics of CTLA4-Fc mask variants, as measured by SPR. Binding kinetics of mLCN2 for each CTLA4-Fc variant was measured by SPR. Half-life time was calculated from equation: t_{1/2} = ln (2)/kd.
For orientation: SPR reads the build-up and loss of mass on a sensor chip optically.

Test [4] addresses T3, CTLA4-Fc variant E31S R33E T51H (human).
T3 construct: Whole fusion (CTLA4 extracellular domain, MMP9 linker, IgG1 Fc) with E31S, R33E and T51H; also called E31S, R33E, T51H CTLA-4
The experiment in a line: SPR (Biacore T100), mLCN2 on CTLA4-Fc variant. On the procedure:
as §1, §2

Test [5] has as its target CTLA4-Fc variant Y52F (human). The experiment in a line: SPR (Biacore T100), mLCN2 on CTLA4-Fc variant. On the procedure: as §1, §2
The target of test [6] is T4, CTLA4-Fc variant E31A R33A (human).
T4 construct: Whole fusion (CTLA4 extracellular domain, MMP9 linker, IgG1 Fc) with E31A and R33A; also called E31A and R33A CTLA-4
The experiment in a line: SPR (Biacore T100), mLCN2 on CTLA4-Fc variant. On the procedure: as §1, §2

In test [7] the target is T1, CTLA4-Fc MMP9 (MMP9-cleavable CTLA4-Fc …). The experiment in a line: SPR (Biacore T100), mLCN2 on CTLA4-Fc variant. On the procedure: as §1, §2
The target in test [8] is T5, CTLA-4-Fc (purchased from R&D systems) (human, UniProt P16410 37-162).
T5 construct: Bought reagent; also called human CTLA4; not shown: Fc part and linker of the commercial product are not described
T5 sequence (looked up): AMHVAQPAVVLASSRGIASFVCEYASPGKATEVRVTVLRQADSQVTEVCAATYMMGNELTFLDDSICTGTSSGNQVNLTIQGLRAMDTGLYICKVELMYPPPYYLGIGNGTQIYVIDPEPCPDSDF
Briefly: SPR presumed; method not given; monovalent m-Lcn2 to CTLA-4.

Test [9] deals with T5, CTLA-4-Fc (purchased from R&D systems). Briefly: calculated from the koff of the monovalent m-Lcn2 : CTLA-4 interaction.
The target of test [10] is T2, CTLA4-Fc variant T51H. Briefly: calculated from SPR kd, t1/2 = ln(2)/kd. On the procedure:
as §1, §2

In test [11] the target is T3, CTLA4-Fc variant E31S R33E T51H. Briefly: calculated from SPR kd, t1/2 = ln(2)/kd. On the procedure:
as §1, §2

For test [12], the target named is CTLA4-Fc variant Y52F (human). Briefly: calculated from SPR kd, t1/2 = ln(2)/kd. On the procedure: as §1, §2
Test [13] deals with T4, CTLA4-Fc variant E31A R33A. Briefly: calculated from SPR kd, t1/2 = ln(2)/kd. On the procedure:
as §1, §2

Test [14] deals with T1, CTLA4-Fc MMP9 (MMP9-cleavable CTLA4-Fc …). The experiment in a line: calculated from SPR kd, t1/2 = ln(2)/kd. On the procedure: as §1, §2

T1 sequence (chain, as listed by the source limits assumed): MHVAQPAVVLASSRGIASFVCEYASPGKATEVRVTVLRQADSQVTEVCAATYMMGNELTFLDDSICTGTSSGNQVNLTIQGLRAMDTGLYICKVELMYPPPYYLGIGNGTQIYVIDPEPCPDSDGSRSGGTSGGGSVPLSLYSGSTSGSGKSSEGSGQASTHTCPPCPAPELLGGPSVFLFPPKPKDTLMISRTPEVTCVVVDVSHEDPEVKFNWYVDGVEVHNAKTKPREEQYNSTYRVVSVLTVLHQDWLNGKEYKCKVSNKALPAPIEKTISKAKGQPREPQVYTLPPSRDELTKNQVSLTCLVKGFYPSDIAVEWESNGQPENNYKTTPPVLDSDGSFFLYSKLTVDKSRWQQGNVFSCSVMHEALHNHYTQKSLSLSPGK
T2 sequence (chain, as listed by the source T51H T51H limits assumed): as the sequence (chain, as listed by the source limits assumed) above, with T51H counted along it
Sequence of CTLA4-Fc variant Y52F (human) (chain, as listed by the source Y52F Y52F limits assumed): as the sequence (chain, as listed by the source limits assumed) above, with Y52F counted along it
T4 sequence (chain, as listed by the source E31A R33A E31A R33A limits assumed): as the sequence (chain, as listed by the source limits assumed) above, with E31A, R33A counted along it
T3 sequence (chain, as listed by the source E31S R33E T51H E31S R33E T51H limits assumed): as the sequence (chain, as listed by the source limits assumed) above, with E31S, R33E, T51H counted along it

B1: mLCN2-Fc (bivalent m-Lcn2 fused to human IgG1 Fc) (Fc fusion)
chain: QDSTSDLIPAPPLSKVPLQQNFQDNQFHGKWYVVGLAGNRILRDDQHPMNMYATIYELKEDKSYNVTSVISSHKKCEYTIATFVPGSQPGEFTLGNIKSYGDKTSYLVRVVSTDYNQYAVVFFKLAEDNAEFFAITIYGRTKELASELKENFIRFSKSLGLPENHIVFPVPIDQCIDG
notes: m-Lcn2 cDNA was subcloned N-terminal to a linker-Fc domain and expressed in insect cells; also called bivalent m-Lcn2-Fc; unmasked m-Lcn2-Fc; not shown: linker between m-Lcn2 and Fc; human IgG1 Fc fragment
For B1, the “induction of IFN-γ production (Elispot)” value in test [1] is 10 fold. In test [2], this molecule came in with a Kd of no more than 0.2 nM.

B2: modified lipocalin2 (mLcn2), monovalent (designed binder)
chain: B1 chain
notes: Re-engineered human lipocalin 2 used as a CTLA-4 antagonist; also called monovalent mLCN2; monomeric mLCN2
Consider B2, for which the Kd in test [3] was found to be 9.07 nM; in test [4], 5600 nM; in test [5], 6.14 nM; in test [6], 100 nM; in [7], 5.52 nM. For the same molecule, the koff in [3] turned out to be 0.00022 s⁻¹; in test [4] it was 0.025 s⁻¹; in [5], 0.000215 s⁻¹; in test [6] it was 0.0011 s⁻¹; in test [7] it was 0.000201 s⁻¹; in test [8], 0.00051 s⁻¹. Besides, the kon in test [3] came to 24200 M⁻¹ s⁻¹; in test [4] it was 4430 M⁻¹ s⁻¹; in test [5] it was 35100 M⁻¹ s⁻¹; in test [6], 11000 M⁻¹ s⁻¹; in test [7], 36400 M⁻¹ s⁻¹. The “t1/2 (dissociation half-life, 0.693/KOFF)” value in test [9] was 22 min. In addition, the “Calculated t1/2” value in [10] was 52.5 min; in [11] it was 0.467 min; in test [12] it was 53.7 min; in [13] it was 11.6 min; in [14], 57.8 min.
